From patent publication US20060148057A1 (published 2006)
Substitutions are numbered along the chain they refer to. In names and notes the source's numbering stands.

T1: HA-tagged ASK1-WT (UniProt Q99683 1-1374)
T1 sequence (looked up): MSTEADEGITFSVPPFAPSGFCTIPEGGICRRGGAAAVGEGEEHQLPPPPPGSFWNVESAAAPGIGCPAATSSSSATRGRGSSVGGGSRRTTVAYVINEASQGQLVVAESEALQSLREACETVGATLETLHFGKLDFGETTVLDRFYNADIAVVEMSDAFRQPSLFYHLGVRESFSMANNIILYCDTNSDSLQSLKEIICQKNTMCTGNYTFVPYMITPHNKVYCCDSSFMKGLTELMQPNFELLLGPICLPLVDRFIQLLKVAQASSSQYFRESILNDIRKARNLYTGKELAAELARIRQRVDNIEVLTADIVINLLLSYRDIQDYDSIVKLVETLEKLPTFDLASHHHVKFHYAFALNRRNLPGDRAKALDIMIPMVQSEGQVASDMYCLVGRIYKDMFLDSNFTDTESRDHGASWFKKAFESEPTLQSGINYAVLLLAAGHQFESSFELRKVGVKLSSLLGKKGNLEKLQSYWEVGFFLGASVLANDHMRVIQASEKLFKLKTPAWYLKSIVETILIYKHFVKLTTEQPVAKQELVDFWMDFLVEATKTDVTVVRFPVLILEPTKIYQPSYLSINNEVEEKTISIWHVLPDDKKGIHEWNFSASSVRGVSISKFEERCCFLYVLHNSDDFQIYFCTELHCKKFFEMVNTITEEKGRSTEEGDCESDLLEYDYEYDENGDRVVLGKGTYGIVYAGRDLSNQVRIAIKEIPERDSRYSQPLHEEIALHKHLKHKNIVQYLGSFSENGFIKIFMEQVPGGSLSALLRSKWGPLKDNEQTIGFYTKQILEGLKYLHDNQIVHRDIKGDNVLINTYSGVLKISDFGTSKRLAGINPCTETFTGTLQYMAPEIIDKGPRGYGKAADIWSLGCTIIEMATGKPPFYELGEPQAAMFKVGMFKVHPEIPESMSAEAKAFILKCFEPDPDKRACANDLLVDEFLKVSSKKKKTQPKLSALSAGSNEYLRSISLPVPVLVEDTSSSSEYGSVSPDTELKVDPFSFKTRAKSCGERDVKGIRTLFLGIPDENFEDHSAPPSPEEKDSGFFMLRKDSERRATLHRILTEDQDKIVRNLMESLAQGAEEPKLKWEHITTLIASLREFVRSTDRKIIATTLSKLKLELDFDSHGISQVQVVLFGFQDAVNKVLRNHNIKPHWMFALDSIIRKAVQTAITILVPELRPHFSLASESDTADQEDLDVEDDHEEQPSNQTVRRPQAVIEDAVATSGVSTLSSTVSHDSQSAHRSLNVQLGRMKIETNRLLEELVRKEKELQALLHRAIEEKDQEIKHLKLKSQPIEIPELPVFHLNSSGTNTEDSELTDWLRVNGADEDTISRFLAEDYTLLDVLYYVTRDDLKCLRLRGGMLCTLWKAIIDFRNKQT

B1: Flag-tagged Trx-WT (enzyme, not shown: small tags and cut ends)
chain: MVKQIESKTAFQEALDAAGDKLVVVDFSATWCGPCKMIKPFFHSLSEKYSNVIFLEVDVDDCQDVASECEVKCMPTFQFFKKGQKVGEFSGANKEKLEATINELV
B2: Flag-tagged Trx-CS (enzyme)
chain: B1 chain with C32S, C35S
notes: Expressed by transfection in BAEC; not shown: Flag tag of the Flag-vector
B3: Flag-tagged Trx-C32S (enzyme, not shown: small tags and cut ends)
chain: B1 chain with C32S
B4: Flag-tagged Trx-C35S (enzyme, not shown: small tags and cut ends)
chain: B1 chain with C35S
B5: GST-Trx-CS (enzyme, not shown: a dimerising Fc or GST; large carriers; small tags and cut ends)
chain: B1 chain with C32S, C35S
notes: also called double-mutant of C32S and C35S

Assays:
HA-tagged ASK1-WT [1] = biological target: T1, HA-tagged ASK1-WT; assay: cell-based or functional assay
HA-tagged ASK1-WT [2] = biological target: T1, HA-tagged ASK1-WT; assay: co-immunoprecipitation from BAEC (anti-Flag IP, anti-HA blot)
HA-tagged ASK1-WT [3] = biological target: T1, HA-tagged ASK1-WT; assay: GST pull-down from BAEC lysate, anti-HA Western blot

| Binder | cell survival in ASK1-induced EC death (GFP co-transfection killing assay) (HA-tagged ASK1-WT [1]) [%] | inhibition of ASK1-induced caspase 3 activity (HA-tagged ASK1-WT [1]) [%] | binding result (HA-tagged ASK1-WT [2]) | binding result (HA-tagged ASK1-WT [3]) |
| --- | --- | --- | --- | --- |
| B1 | 92 | 50 | – | – |
| B2 | – | – | no binding | – |
| B3 | 80 | 48 | – | – |
| B4 | 105 | 52 | – | – |
| B5 | – | – | – | no binding |
